We go through twelve molecules from patent US20250027068A1 (published 2025).

Substitutions are numbered along the chain they refer to.

The assay deals with pooled human IgG (human). Briefly: cell-based or functional assay.
Further: test concentration or dose not given here.

B1: PRT-213 (enzyme)
chain: MEVVEVWPYGQNPNGKTEILSQTEDSESLQRLRDIEDFQAEKKKEGVVYTKWLDGVTVKDHDFRKIVDGNIEYYATPLLNGRGWYDINKDFNRDSDKCAAAVAANMFHYWLDRNRDNVDRFLKQNPEKHGIIELPDGQLKLSDFLNTYESDNGYRDKSKLFDFISKNFNGPVWTDKLLDNYINGYGYNYKYGRTIEDPTKNTSKINFFKKVFNEKILTDIHSIRNQNEFSDLLSEALYTGKAIGLSYGPAGLRHSLGHIISVWGADFDEDGNVVAIYVTDSDDKKLTIGDERVGLKRYKVSTDDEGRARLTAYTETDNTGGQVRGLYTLDTGTQAWADYFDKTEQTGTDQAEQLEHHHHHH
B1: the “Enzyme Activity Endpoint Assay (purified): Fab′2” value was 0 ng/µL, the “Enzyme Activity Endpoint Assay (purified): Fc” value was determined as 244 ng/µL, the “Enzyme Activity Endpoint Assay (purified): IgG” value was determined as 1290 ng/µL and the “Enzyme Activity Endpoint Assay (purified): scIgG” value was 301 ng/µL.

B2: PRT-215 (enzyme)
chain: B1 chain with Y327W
Consider B2, for which the “Enzyme Activity Endpoint Assay (purified): Fab′2” value came to 73 ng/µL, the “Enzyme Activity Endpoint Assay (purified): Fc” value is 310 ng/µL, the “Enzyme Activity Endpoint Assay (purified): IgG” value worked out at 708 ng/µL and the “Enzyme Activity Endpoint Assay (purified): scIgG” value is 309 ng/µL.

B3: PRT-210 (enzyme)
chain: MEVVEVWPYGQNPNGKTEILSQTEDSESLQRLRDIEDFQAEKKKQNVVYTKWLDGVTVDDHDFRKITDGNTAYYATPLLNGRGFYDINKDFNRDSDKCAAAVAANMFHYWLDQNRDNVDRFLKQNPEKHGIIELPDGQLKLSDFLNTYESDDGYRDKSKLFDFISNNFNGPVWTDKLLDNYINGYAYNYKYGRTIEDPTKNTSKINFFKEVFNEKLLTNNHSIRNQNEFSDLLSEALYTGKAIGLSYGPAGLRHSLGHIISVWGADFDADGNVVAIYVTDSDDKKLTIGDERVGLKRYKISSDDEGRARLTAYTEKHNTGGQIRGLYTLDTGKQEWADYFDKTEQTGTDQAEQLEHHHHHH
As for B3, the “Enzyme Activity Endpoint Assay (purified): Fab′2” value stood at 0 ng/µL, the “Enzyme Activity Endpoint Assay (purified): Fc” value amounted to 87 ng/µL, the “Enzyme Activity Endpoint Assay (purified): IgG” value is 1780 ng/µL and the “Enzyme Activity Endpoint Assay (purified): scIgG” value was 25 ng/µL.

B4: PRT-206 (enzyme)
chain: MEVVEVWPYGQNPNGKTEILSQTEDSESLQRLRDIEDFQAEKKKENVVYTKWLDGVTVKDHDFRKIVDGNIAYYATPLLNGRGFYDINKDFNRDSDKCAAAVAANMFHYWLDINRDNVDRFLRQNPEKHGIIELPDGQLKLSDFLNTYESDDGYRDKSKLFDFISNNFNGPVWTDKLLDNYINGYGYNYKYGRTIEDPTKNTSKINFFKEVFNEKILTDNHSIRDQNEFSDLLSEALYTGKAIGLSYGPAGLRHSLGHIISVWGADLDADGNVVAIYVTDSDDKKLTIGDERVGLKRYKISYDDEGRARLTAYEEKDNTGGQIRGLYTLDTGKQAWADYFDKTEQTGTDQAEQLEHHHHHH
Regarding B4, the “Enzyme Activity Endpoint Assay (purified): Fab′2” value amounted to 570 ng/µL, the “Enzyme Activity Endpoint Assay (purified): Fc” value amounted to 0 ng/µL, the “Enzyme Activity Endpoint Assay (purified): IgG” value turned out to be 2130 ng/µL and the “Enzyme Activity Endpoint Assay (purified): scIgG” value is 0 ng/µL.

B5: PRT-208 (enzyme)
chain: B4 chain with Y327W
Take B5: the “Enzyme Activity Endpoint Assay (purified): Fab′2” value was 0 ng/µL, the “Enzyme Activity Endpoint Assay (purified): Fc” value is 153 ng/µL, the “Enzyme Activity Endpoint Assay (purified): IgG” value was 1700 ng/µL and the “Enzyme Activity Endpoint Assay (purified): scIgG” value was 113 ng/µL.

B6: PRT-214 (enzyme)
chain: MEVVEVWPYGQNPNGKTEILSQTEDSESLQRLRDIEDFQAEKKKEGVVYTKWLDGVDVDDHDFRKITDGDIEYYATPLLNGRGFYDINKDFNRDSDKCAAAVAANMFHYWLDRNRDNVDRFLKQNPEKHGIIELPDGQLKLSDFLNTYESDYGYRDKSKLFDFISNNFNGPVWTDKLLDNYINGYAYNYKYGRTIEDPTKNTSKINFFKEVFDEKLLTNNHSIRNYNEFSELLREALYTGKAIGLSYGPAGLRHSLGHIISVWGADLDEDGNVVAIYVTDSDDKKLTIGDERVGLKRYKVSSDDENRARLTAYEEKDNTGGEIRGLYTLDTGKQAWADYFDKTEQTGTDQAEQLEHHHHHH
As for B6, the “Enzyme Activity Endpoint Assay (purified): Fab′2” value amounted to 467 ng/µL, the “Enzyme Activity Endpoint Assay (purified): Fc” value came out at 27 ng/µL, the “Enzyme Activity Endpoint Assay (purified): IgG” value turned out to be 1650 ng/µL and the “Enzyme Activity Endpoint Assay (purified): scIgG” value was determined as 0 ng/µL.

B7: PRT-209 (enzyme)
chain: MEVVEVWPYGQNPNGKTEILSQTEDSESLQRLRDIEDFQAEKKKQGVVYTKWLDGVDVDDHDFRKIVDGNIAYYATPLLNGKGFYDINKDFNRDSDKCAAAVAANMFHYWLDQNRDNVDRFLRQNPEKHGIIELPDGQLKLSDFLNTYESDNGYRDKSKLFDFISNNFNGPVWTDKLLDNYINGYAYNYKYGRTIEDPTKNTSKINFFKDVFNEKILTNIHSIRNYNTFSNLLSEALYTGKAIGLSYGPAGLRHSLGHIISVWGADLDEDGNVVAIYVTDSDDKKLTIGDERVGLKRYKISTDDEGRARLTAYEENDNTGGEIRGLYTLDTGKQAWADYFDKTEQTGTDQAEQLEHHHHHH
For B7, the “Enzyme Activity Endpoint Assay (purified): Fab′2” value came to 0 ng/µL, the “Enzyme Activity Endpoint Assay (purified): Fc” value was 124 ng/µL, the “Enzyme Activity Endpoint Assay (purified): IgG” value was 1670 ng/µL and the “Enzyme Activity Endpoint Assay (purified): scIgG” value amounted to 71 ng/µL.

B8: PRT-211 (enzyme)
chain: B7 chain with Y327W
As for B8, the “Enzyme Activity Endpoint Assay (purified): Fab′2” value stood at 0 ng/µL, the “Enzyme Activity Endpoint Assay (purified): Fc” value worked out at 68 ng/µL, the “Enzyme Activity Endpoint Assay (purified): IgG” value is 2190 ng/µL and the “Enzyme Activity Endpoint Assay (purified): scIgG” value turned out to be 0 ng/µL.

B9: PRT-216 (enzyme)
chain: MEVVEVWPYGQNPNGKTEILSQTEDSESLQRLRDIEDFQAEKKKENVVYTKWLDGVDVDDHDFRKIVDGNTEYYATPLLNGRGWYDINKDFNRDSDKCAAAVAANMFHYWLDQNRDNIDRFLRQSPEKHGIIELPDGQLKLSDFLNTYESDDGYRDKSKLFDFISNNFNGPVWTDKLLDNYINGYGYNYKYGRTIEDPTKNNSKINFFKKVFNGKILTDNHSIRNYNTFSDLLSEALYTGKAIGLSYGPAGLRHSLGHIISVWGADLDADGNVVAIYVTDSDDKKLTIGDERVGLKRYKISYDDENRARLTAYEENDNTGGQIRGLETLDTGKQAWADYFDKTEQTGTDQAEQLEHHHHHH
Regarding B9, the “Enzyme Activity Endpoint Assay (purified): Fab′2” value stood at 0 ng/µL, the “Enzyme Activity Endpoint Assay (purified): Fc” value was 0 ng/µL, the “Enzyme Activity Endpoint Assay (purified): IgG” value turned out to be 1660 ng/µL and the “Enzyme Activity Endpoint Assay (purified): scIgG” value came to 0 ng/µL.

B10: PRT-212 (enzyme)
chain: MEVVEVWPYGQNPNGKTEILSQTEDSESLQRLRDIEDFQAEKKKEGVVYTKWLDGVDVKDHDFRKIVDGNIEYYATPLLNGRGFYDINKDFNQDSDKCAAAVAANMFHYWLDRNRDNVDRFLSQNPEKHGIIELPDGQLKLSDFLNTYESDDGYRDKSKLFDLISNNFNGPVWTDKLLDNYINGYAYNYKYGRTIEDPTKNTSKINFFKEVFNEKILTNIHSIRNQNEFSDKLSEALYTGKAIGLSYGPAGLRHSLGHIISVWGADLDEDGNVVAIYVTDSDDKKLTIGDERVGLKRYKVSTDDEGRLRLTAYEETDNTGGEIRGIWTLDTGKQAWADYFDKTEQTGTDQAEQLEHHHHHH
Take B10: the “Enzyme Activity Endpoint Assay (purified): Fab′2” value worked out at 13 ng/µL, the “Enzyme Activity Endpoint Assay (purified): Fc” value was found to be 435 ng/µL, the “Enzyme Activity Endpoint Assay (purified): IgG” value came out at 1270 ng/µL and the “Enzyme Activity Endpoint Assay (purified): scIgG” value stood at 599 ng/µL.

B11: PRT-207 (enzyme)
chain: MEVVEVWPYGQNPNGKTEILSQTEDSESLQRLRDIEDFQAEKKKEGVVYTKWLDGVDVDDHDFRKIVDGNIAYYATPLLNGRGFYDINKDFNRDSDKCAAAVAANMFHYWLDRNRDNVDRFLKQNPEKHGIIELPDGQLKLSDFLNTYESDNGYRDKSKLFDFISNNFNGPVWTDKLLDNYINGYAYNYKYGRTIEDPTKNTSKINFFKEVFNEKILTNNHSIRNYNTFSDLLSEALYTGKAIGLSYGPAGLRHSLGHIISVWGADLDADGNVVAIYVTDSDDKKLTIGDERVGLKRYKVSSDDENRLRLTAYEETHNTGGQIRGIWTLDTGKQAWADYFDKTEQTGTDQAEQLEHHHHHH
With B11, the “Enzyme Activity Endpoint Assay (purified): Fab′2” value is 0 ng/µL, the “Enzyme Activity Endpoint Assay (purified): Fc” value is 249 ng/µL, the “Enzyme Activity Endpoint Assay (purified): IgG” value is 1290 ng/µL and the “Enzyme Activity Endpoint Assay (purified): scIgG” value is 287 ng/µL.

B12: PRT-217 (enzyme)
chain: MEVVEVWPYGQNPNGKTEILSQTEDSESLQRLRDIEDFQAEKKKQNVVYTKWLDGVTVDDSDFRKIKDGNTEYYATPLLNGRGFYDINKDFNRDSDKCAAAVAANMFHYWLDRNRDNVDRFLKQNPEKHGIIELPDGQLKLSDFLNTYESDNNYRDKSKLFDFISKNFNGPVWTNKLLDNYINGYGYNYKYGRTIEDPTKNTSKINFFKKVFNEKILTNVHQIFNYNEFSTLLSEALYTGKAIGLSYGPGGLRHSLGHIISVWGADLDADGNVVAIYVTDSDDKKLTIGDERVGLKRYKISTDDEGRARLTAYTETDNTGGQVRGIYTLDTGKQAWADYFDKTEQTGTDQAEQLEHHHHHH
On to B12, for which the “Enzyme Activity Endpoint Assay (purified): Fab′2” value was 0 ng/µL, the “Enzyme Activity Endpoint Assay (purified): Fc” value stood at 86 ng/µL, the “Enzyme Activity Endpoint Assay (purified): IgG” value came to 1580 ng/µL and the “Enzyme Activity Endpoint Assay (purified): scIgG” value was 41 ng/µL.
